This passage reports Km, kcat and kcat/Km results from article PMC6474815.

As a reminder, the Km is the concentration of substrate that gives half-maximal velocity. Broadly, the kcat is the maximal rate divided by the concentration of active sites. Broadly, the kcat/Km is the second-order rate constant that governs catalysis at low substrate concentration.

This data set deals with CC(=O)SCCNC(=O)CCNC(=O)[C@H](O)C(C)(C)COP(=O)(O)OP(=O)(O)OC[C@H]1O[C@@H](n2cnc3c(N)ncnc32)[C@H](O)[C@@H]1OP(=O)(O)O. In words: discontinuous colorimetric DTNB assay. The format is biochemical, Pseudomonas aeruginosa. The settings on record: 5 mM polymyxin B constant, 50 mM Tris-HCl pH 8.0, 37 °C.

For the substance “PA3944 (cleaved) (Pseudomonas aeruginosa PAO1)”, the Km is 137 ± 20 µM, the kcat was found to be 0.61 s⁻¹ and the kcat/Km was found to be 4450 M⁻¹ s⁻¹.
As to “PA3944 (tagged) (Pseudomonas aeruginosa PAO1)”, the Km is 118 ± 28 µM, the kcat came out at 0.602 s⁻¹ and the kcat/Km is 5100 M⁻¹ s⁻¹.
